Experimental findings from article PMC5074805 are described below.

The target in experiment [1] is M4N-His (M4N with the stop helix extended by a C-terminal His6-tag). Nature of the experiment: SEC-MALS; static light scattering: Superdex S200 gel size exclusion column coupled to a miniDAWN Tristar laser photometer and a differential refractometer; buffer A (50 mM Tris pH 8, 150 mM NaCl). (In general: Size exclusion chromatography separates by hydrodynamic size, large species first.)

Experiment [2] deals with M4NΔC (M4N without stop helix). The experiment is described as above.

Usually stoichiometry N stands for a count of units in the complex or per binding partner. For the substance “M4N-His (M4N with the stop helix extended by a C-terminal His6-tag)”, in experiment [1], the stoichiometry N is 2.

In experiment [2], M4NΔC (M4N without stop helix) yielded a stoichiometry N of 2.
